This is an account of results in patent US20240376186A1 (AARHUS UNIVERSITET, published 2024).

Experiment [1] deals with T1, C3b (human, UniProt P01024 23-667; P01024 749-1663).
T1 construct: also called human C3b
Nature of the experiment: size exclusion chromatography, 2-fold molar excess of EWE-hC3Nb1; SDS-PAGE of peak fractions confirmed the complex. As for the experimental part: (§1) Size exclusion chromatography assay. 200 μg C3b was mixed with a 2-fold molar excess of EWE-hC3Nb1 or left untreated. The mix was diluted to 400 μL in 20 mM HEPES pH 7.5, 150 mM NaCl and applied to a Superdex 200 increase (GE Healthcare) column equilibrated in dilution buffer. SEC assaying binding of EWE-hC3Nb1 to native C3 was performed similarly. Peak fraction were analyzed by SDS PAGE.
(In general: Size exclusion chromatography separates by hydrodynamic size, large species first.)

The next experiment addresses T2, native C3 (human, UniProt P01024 23-667; P01024 668-1663).
T2 construct: also called Complement component 3
Put plainly: size exclusion chromatography. How it is done: as §1

For experiment [2], the target named is T1, C3b. Nature of the experiment: bio-layer interferometry, binder on anti-penta his biosensors; reference EWE-hC3Nb1 on C3b. How it is done: FIGS. 8A-8B Bio-layer interferometry-based analysis of EWEμH. (FIG. 8A) Anti-penta his biosensors were coated with EWEμH. The sensors were transferred into a dilution series from 1.5625-50 nM C3b. (FIG. 8B) Anti-penta his biosensors were coated with EWEμH and transferred into an iC3b dilution series ranging from 3.125-50 nM.
(§2) Bio-layer interferometry experiments. All experiments were performed in 20 mM HEPES pH 7.5, […]. All experiments were performed on an Octet RED96 (Fortébio Pall Corporation) instrument operating at 30° C., shaking at 1000 rpm. EWE-hC3Nb1, EWEμH or EWEnH was immobilized on anti-penta his biosensor (Fortebio Pall Corporation) and the sensors were transferred into dilution series of C3b or iC3b. Measurements of 0 nM analyte were subtracted from sensorgrams for normalization and the sensorgrams were fitted to a 1:1 binding model using the GraphPad Prism (version 6.01) software.

Experiment [3] concerns the target T1, C3b. Put plainly: bio-layer interferometry, summary of affinities (FIG. 10). How it is done:
FIGS. 9A-9B Bio-layer interferometry-based analysis of EWEnH. (FIG. 9A) Anti-penta his biosensors were coated with EWEnH. The sensors were transferred into a dilution series from 3.125-100 nM C3b. (FIG. 9B) Anti-penta his biosensors were coated with EWEnH. The iC3b concentration tested ranged from 6.25-100 nM.
as §2
(In general: Biolayer interferometry detects binding as a change in optical thickness at a sensor tip.)

T1 sequence (P01024 23-667 limits assumed, chain 1 of 2): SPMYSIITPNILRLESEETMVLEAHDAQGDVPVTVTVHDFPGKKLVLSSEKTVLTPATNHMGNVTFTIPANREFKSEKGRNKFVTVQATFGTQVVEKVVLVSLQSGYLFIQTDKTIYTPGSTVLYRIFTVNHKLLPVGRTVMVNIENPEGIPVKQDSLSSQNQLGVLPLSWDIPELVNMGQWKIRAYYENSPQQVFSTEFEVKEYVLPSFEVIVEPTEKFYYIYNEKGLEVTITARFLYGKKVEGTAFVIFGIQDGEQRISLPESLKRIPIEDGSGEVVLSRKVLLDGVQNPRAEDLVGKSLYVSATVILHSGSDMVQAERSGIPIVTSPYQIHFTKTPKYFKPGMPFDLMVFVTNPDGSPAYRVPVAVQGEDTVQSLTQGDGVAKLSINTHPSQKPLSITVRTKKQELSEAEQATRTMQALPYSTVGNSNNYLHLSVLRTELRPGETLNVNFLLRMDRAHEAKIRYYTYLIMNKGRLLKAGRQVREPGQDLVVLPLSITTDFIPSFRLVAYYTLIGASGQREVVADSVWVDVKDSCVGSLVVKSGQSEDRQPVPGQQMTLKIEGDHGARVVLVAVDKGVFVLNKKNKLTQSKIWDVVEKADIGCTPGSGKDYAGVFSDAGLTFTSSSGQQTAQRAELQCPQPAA
T1 sequence (P01024 749-1663 limits assumed, chain 2 of 2): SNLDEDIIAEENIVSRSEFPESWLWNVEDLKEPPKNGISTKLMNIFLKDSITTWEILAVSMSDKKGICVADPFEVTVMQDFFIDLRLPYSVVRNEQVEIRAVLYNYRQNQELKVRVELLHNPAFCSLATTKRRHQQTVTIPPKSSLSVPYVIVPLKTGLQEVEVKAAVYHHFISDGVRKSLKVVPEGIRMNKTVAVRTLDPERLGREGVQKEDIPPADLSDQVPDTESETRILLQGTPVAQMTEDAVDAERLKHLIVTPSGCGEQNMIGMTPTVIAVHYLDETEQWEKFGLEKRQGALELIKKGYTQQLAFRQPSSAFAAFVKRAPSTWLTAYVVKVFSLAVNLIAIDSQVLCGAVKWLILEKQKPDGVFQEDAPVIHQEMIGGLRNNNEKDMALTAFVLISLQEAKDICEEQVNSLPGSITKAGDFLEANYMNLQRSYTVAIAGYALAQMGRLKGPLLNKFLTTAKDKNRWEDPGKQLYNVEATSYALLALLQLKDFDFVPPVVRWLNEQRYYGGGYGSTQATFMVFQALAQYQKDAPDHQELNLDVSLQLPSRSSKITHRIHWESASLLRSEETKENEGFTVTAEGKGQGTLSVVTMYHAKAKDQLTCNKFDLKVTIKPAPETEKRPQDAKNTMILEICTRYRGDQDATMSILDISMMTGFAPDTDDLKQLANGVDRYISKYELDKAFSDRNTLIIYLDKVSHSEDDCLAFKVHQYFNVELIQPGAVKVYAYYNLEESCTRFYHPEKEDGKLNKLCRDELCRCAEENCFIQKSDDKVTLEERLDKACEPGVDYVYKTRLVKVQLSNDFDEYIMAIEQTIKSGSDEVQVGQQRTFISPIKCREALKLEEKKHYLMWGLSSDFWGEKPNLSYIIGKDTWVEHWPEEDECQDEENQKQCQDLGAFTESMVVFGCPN
T2 sequence (P01024 23-667, chain 1 of 2): as the sequence (P01024 23-667 limits assumed, chain 1 of 2) above
T2 sequence (P01024 668-1663, chain 2 of 2): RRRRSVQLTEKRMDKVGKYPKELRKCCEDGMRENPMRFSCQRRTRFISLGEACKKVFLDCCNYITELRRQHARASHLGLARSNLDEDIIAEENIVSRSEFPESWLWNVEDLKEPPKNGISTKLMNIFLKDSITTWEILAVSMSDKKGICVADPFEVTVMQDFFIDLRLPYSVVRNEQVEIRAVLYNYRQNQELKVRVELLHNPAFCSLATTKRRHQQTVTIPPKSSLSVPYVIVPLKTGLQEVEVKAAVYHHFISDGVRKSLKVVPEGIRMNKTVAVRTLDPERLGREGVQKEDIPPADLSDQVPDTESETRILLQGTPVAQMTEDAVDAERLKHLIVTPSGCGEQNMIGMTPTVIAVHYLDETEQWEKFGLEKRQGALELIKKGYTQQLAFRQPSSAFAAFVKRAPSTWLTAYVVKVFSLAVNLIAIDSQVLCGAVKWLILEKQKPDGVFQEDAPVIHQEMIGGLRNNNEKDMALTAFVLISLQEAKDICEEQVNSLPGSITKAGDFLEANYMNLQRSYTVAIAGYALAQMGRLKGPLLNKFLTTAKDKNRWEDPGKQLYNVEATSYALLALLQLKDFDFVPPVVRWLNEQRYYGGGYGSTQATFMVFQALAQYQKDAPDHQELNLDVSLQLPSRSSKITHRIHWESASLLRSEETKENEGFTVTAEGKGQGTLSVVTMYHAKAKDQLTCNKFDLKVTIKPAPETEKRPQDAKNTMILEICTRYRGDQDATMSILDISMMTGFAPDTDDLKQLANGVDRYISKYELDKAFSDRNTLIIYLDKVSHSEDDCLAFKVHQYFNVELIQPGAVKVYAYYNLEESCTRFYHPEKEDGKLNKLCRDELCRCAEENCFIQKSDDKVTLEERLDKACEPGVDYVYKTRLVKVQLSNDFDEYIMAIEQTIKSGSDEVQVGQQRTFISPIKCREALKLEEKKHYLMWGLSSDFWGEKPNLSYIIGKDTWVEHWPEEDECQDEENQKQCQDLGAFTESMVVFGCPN

B1: EWE-hC3Nb1 (VHH)
VHH: QVQLVETGGGLVQAGGSLRLSCAASGSIFSINAMGWFRQAPGKEREFVATINRSGGRTYYADSVKGRFTISRDNGKNMVYLQMHSLKPEDTAIYYCAAGTGWSPQTDNEYNYWGQGTQVTVSS
notes: hC3Nb1 with an N-terminal Glu-Trp-Glu motif; expressed in E. coli; also called single domain antibody EWE-hC3Nb1; EWE-hC3Nb1 nanobody; not shown: His tag implied by HisTrap purification and capture on anti-penta his biosensors
For the molecule B1, the binding result in the experiment with C3b [1] was “binds”; in the experiment with native C3, “no binding (tested: 2-fold molar excess of EWE-hC3Nb1)”.

B2: EWEµH (other)
chain: EWEQVQLVETGGGLVQAGGSLRLSCAASGSIFSINAMGWFRQAPGKEREFVATINRSGGRTYYADSVKGRFTISRDNGKNMVYLQMHSLKPEDTAIYYCAAGTGWSPQTDNEYNYWGQGTQVTVSSGGGGSGGGGSGGGGSGGGGSRPCGHPGDTPFGTFTLTGGNVFEYGVKAVYTCNEGYQLLGEINYRECDTDGWTNDIPICEVVKCLPVTAPENGKIVSSAMEPDREYHFGQAVRFVCNSGYKIEGDEEMHCSDDGFWSKEKPKCVEISCKSPDVINGSPISQKIIYKENERFQYKCNMGYEYSERGDAVCTESGWRPLPSCEEAGGGGGGGGGGGGGKCGPPPPIDNGDITSFPLSVYAPASSVEYQCQNLYQLEGNKRITCRNGQWSEPPKCLHPCVISREIMENYNIALRWTAKQKLYSRTGESVEFVCKRGYRLSSRSHTLRTTCWDGKLEYPTCAKRENLYFQG
notes: expressed in HEK293 cells; also called EWEuH; fusion EWEµH; not shown: His tag implied by HisTrap purification and capture on anti-penta his biosensors
With B2, the “fold stronger binding than EWE-hC3Nb1” value with C3b [2] was around 10 fold.

B3: EWEnH (other)
chain: EWEQVQLVETGGGLVQAGGSLRLSCAASGSIFSINAMGWFRQAPGKEREFVATINRSGGRTYYADSVKGRFTISRDNGKNMVYLQMHSLKPEDTAIYYCAAGTGWSPQTDNEYNYWGQGTQVTVSSGGGGSGGGGSGGGGSGGGGSRPCGHPGDTPFGTFTLTGGNVFEYGVKAVYTCNEGYQLLGEINYRECDTDGWTNDIPICEVVKCLPVTAPENGKIVSSAMEPDREYHFGQAVRFVCNSGYKIEGDEEMHCSDDGFWSKEKPKCVEISCKSPDVINGSPISQKIIYKENERFQYKCNMGYEYSERGDAVCTESGWRPLPSCEEA
notes: expressed in HEK293 cells; also called fusion protein EWEnH; not shown: His tag implied by HisTrap purification and capture on anti-penta his biosensors
Regarding B3, the binding result with C3b [3] is reported as “binds”.
